Data taken from the DeepSol protein solubility set.

Test: soluble on expression in E. coli; label from the status in PepcDB or PDB records

Sequence: MYYERPVFDIVDTWEIREREVLKPVLSVAEEDYCYFVQNTVASAQRSWVDLVANLFNSPDSDIDDALNRFADAPCLHGPTLEPMNLILKGSPMYVYCSFEEMRSCATKRFYEGISNRGVVICTVPPYAEGVTRDDMSVWQNQACVNTCSGKNDLDAYIAFLPTSSLQESSYWHTKNGIYSFLAPSQTDAFCCEILCVGRALFEDRSRKEKLRNCLLKLLNYRLKLLFAAALEHHHHHH
- soluble on expression in E. coli: not soluble

Sequence: MGSDKIHHHHHHMPVIKFSYGDSMSTPLDSDLLRTFLAVADTGNLTRAADTVRRTQSAVSMQIRKLEELIGSALFERHSRGVILTDDGRRLADNARRIVSLLDDTAAAMRSPALEGSVRIGISEEYVNSTLPKALGAFAAIHPGVEVTVRQETSMANSAALAAGELDIAVVFEPGGRSRNEVLMVNPTVWATCDQHGAHERRPVPIATYTYAEGGWCDELARRSLQSRGIESRIAYVSRTSGGLIAALISGLAIAPLSRTAIPAGCRELTEEDGFGIIDMTNVVLRTRRGNRSPTVDAMADAIRRAFRAPAEKEKEEVRSTTTDG
- soluble on expression in E. coli: not soluble

Sequence: MRIMASHDTPVSPAGILIDLDGTVFRGNELIEGAREAIKTLRRMGKKIVFLSNRGNISRAMCRKKLLGAGIETDVNDIVLSSSVTAAFLKKHYRFSKVWVLGEQGLVDELRLAGVQNASEPKEADWLVISLHETLTYDDLNQAFQAAAGGARIIATNKDRSFPNEDGNAIDVAGMIGAIETSAQAKTELVVGKPSWLMAEAACTAMGLSAHECMIIGDSIESDIAMGKLYGMKSALVLTGSAKQGEQRLYTPDYVLDSIKDVTKLAEEGILILEHHHHHH
- soluble on expression in E. coli: not soluble

Sequence: GSGEAKPQAPELRIFPKKMDAELGQKVDLVCEVLGSVSQGCSWLFQNSSSKLPQPTFVVYMASSHNKITWDEKLNSSKLFSAMRDTNNKYVLTLNKFSKENEGYYFCSVISNSVMYFSSVVPVLQKVNSTTTKPVLRTPSPVHPTGTSQPQRPEDCRPRGSVKGTG
- soluble on expression in E. coli: soluble

Sequence: MGSDKIHHHHHHMNDAAPTCTGGCTLNVLHTTTYHYSQPVEHAQQRAVATPPDLPWQSVTAHDTRIEPVPTHQHVRTDAFGNRVLHFMLDVPHTQMQLTCASTVVLTPRWQTLDPSASAPWETVAQSLRFHAAQPFEPATQFAFASPNIALHPSLRDYALPSFGAGVPVVAGAMDLMRRIHADFTYHSESTEVHTPAMQAFAQRSGVCQDFAQVMIGCLRSVGVAARYVSGYLCTEPPPGEERLVGADASHAWVSVYCPVAGWVDLDPTNNVLADTRHVTLAWGRDYSDVPLLHGVIVGGGAHGVDVGVTVVPVD
- soluble on expression in E. coli: not soluble

Sequence: MENKEISYEIIDFSGETNVQFRTSVDPGSYIPTHWHRAIEIIYMQEGSLDVIVESESFTIYKGDCILVNGNVLHSTKCTAPNTAILLQIPLNFMEKYIPNLGQLIFLWDYRTEDPVKKTKLMMLKTTLEQLQVINDIQPDGYLLRFNSLIFELMFQLYHNFSVQVFPQDINHKKKEMDRLDP
- soluble on expression in E. coli: not soluble

Sequence: MAKEFQLTHIFKKVSEFKDGECRCGPLEEHFNVEWLLYINRKDDELAVFLGCNSLQGTEETTLSIYVELKFTLKNSIGTRVTKIAKCLLSNKSTESDFGLNKFIGWETLLKDYLIDDSIIIEAKIKITKMTGFPRKELRSFDESSEEYSDMIIAVGDRKFYVLKQLLASNSTHFQSLIPLDFEEMDCEGKSEITLPDINPSDFQCLLEVLYGEPAMDDENVEGILHSAHMYKMTKVIRNCEEFLSNKSEKPMRDKFKIAKQYQLESLKKSCLSKIQTIQDIKSAMAGDLSDMDATVVAALLEKSVTIEPPSKNGRPY
- soluble on expression in E. coli: soluble

Sequence: HHHHHHGCMSGRKPIIGVMGPGKADTAENQLVMANELGKQIATHGWILLTGGRSLGVMHEAMKGAKEAGGTTIGVLPGPDTSEISDAVDIPIVTGLGSARDNINALSSNVLVAVGMGPGTAAEVALALKAKKPVVLLGTQPEAEKFFTSLDAGLVHVAADVAGAIAAVKQLLAKLN
- soluble on expression in E. coli: soluble

Sequence: MWDQHMHCMFSGDSDADPVLMINSAINKGLDGICFTDHLDYDYKEEPGLFDLDIAAYEKRIKRLAIVLKEKGCPINIHWGIEIGLQPHITDKNNEVAKKYPFDLVIGSSHVVNGIDPYYPAFYKGKTEHEAYTEYFESILDNLHSGADFDVYGHIDYVVRYGPDKNKYYSYERYADIIDAILKEIISQGKGIELNTAGFKYGLGHSNPTEDVLKRYHELGGEIITVGADAHKPEHVAYDFDKVSNILKDAGFMYYTVFENRVPAFIKL
- soluble on expression in E. coli: not soluble

Sequence: MDITITLDRSEQADYIYQQIYQKLKKEILSRNLLPHSKVPSKRELAENLKVSVNSVNSAYQQLLAEGYLYAIERKGFFVEELDMFSAEEHPPFALPDDLKEIHIDQSDWISFSHMSSDTDHFPIKSWFRCEQKAASRSYRTLGDMSHPQGIYEVRAAITRLISLTRGVKCRPEQMIIGAGTQVLMQLLTELLPKEAVYAMEEPGYRRMYQLLKNAGKQVKTIMLDEKGMSIAEITRQQPDVLVTTPSHQFPSGTIMPVSRRIQLLNWAAEEPRRYIIEDDYDSEFTYDVDSIPALQSLDRFQNVIYMGTFSKSLLPGLRISYMVLPPELLRAYKQRGYDLQTCSSLTQLTLQEFIESGEYQKHIKKMKQHYKEKRERLITALEAEFSGEVTVKGANAGLHFVTEFDTRRTEQDILSHAAGLQLEIFGMSRFNLKENKRQTGRPALIIGFARLKEEDIQEGVQRLFKAVYGHKKIPVTGD
- soluble on expression in E. coli: not soluble

Sequence: MSLLSEENEFLFDLNEIPEKTVYSDDGDEFLFDLNKIPPREETVNSSDEDFADHLHRRNQATKRKKKLRKRPKVFRHIEKVISFSFYLVLRASSFLFLDLNWGLRMDTDPYQELRMDTDHMTYEQLLQLCNNMGYENSGVKASNIDRCLRNTKPSEFQSLADKICCICQDGFQKRAGVGKLNCGHNFHVNCVKPWILTKK
- soluble on expression in E. coli: soluble

Sequence: MGSDKIHHHHHHMAHEAQKAIARNSLLIRSLPEQHVDALLSQAVWRSYDRGETLFLQEEKAQAIHVVIDGWVKLFRMTPTGSEAVVSVFTRGESFGEAVALRNTPYPVSAEAVTPCEVMHIPSPVFVSLMRRDPEICISILATTFGHLHSLVAQLEQLKAQTGAQRVAEFLLELCDCDTGACEVTLPYDKMLIAGRLGMKPESLSRAFSRLKAAGVTVKRNHAEIEDIALLRDYAESDPADSWSKS
- soluble on expression in E. coli: not soluble

Sequence: SRLEGWLSLPVRNNTKKFGWVKKYVIVSSKKILFYDSEQDKEQSNPYMVLDIDKLFHVRPVTQTDVYRADAKEIPRIFQILYANEGISSAKNLLLLANSTEEQQKWVSRLVKKIPKK
- soluble on expression in E. coli: soluble

Sequence: SNAMHNHNNRLVITPGEPAGVGPDLAITLAQQDWPVELVVCADPALLLARASQLNLPLQLREYQADQPAIAQQAGSLTILPVKTAVNVVPGKLDVGNSHYVVETLAKACDGAISGEFAALVTGPVQKSIINDAGIPFIGHTEFFADRSHCQRVVMMLATEELRVALATTHLPLLAVPGAITQASLHEVITILDNDLKTKFGITQPQIYVCGLNPHAGEGGHMGHEEIDTIIPALNTLRQQGINLIGPLPADTLFQPKYLQHADAVLAMYHDQGLPVLKYQGFGRAVNITLGLPFIRTSVDHGTALELAATGTADVGSFITALNLAIKMINNSNE
- soluble on expression in E. coli: soluble

Sequence: KESILAVLLYLFEYYFSENADLVRDRDSLQNSLIQVGFSPAEINKAFEWLDALAANRPTLTNPRVNGPVRVLHGPELDKLDVESRGFLLFLEQQGILNTEQRELVLDRAMALDQEELDLDDMKWVVLMVLFNQPGAEAAYAWMETQMFGNEPEQLH
- soluble on expression in E. coli: not soluble

Sequence: MPSTNLTKRDWEKDHVYLVQFPRAGCIPSPSPYAFKVETFLRVADIPYTNINNEFKKMSARGQIPFIELNGRQHADSTIIIDNLTEHFHKSDLEDLSASDKAIARAFFALLEHHLCWVSLYSRGQDFGWLATDTGFGRLLTGIKGFAFKNFIVKSFTKKVRGRAAAQGMGTFSREEVLDQAKKDLDAISTQLGDKPYLFGSSIKTIDVTAFAHLAELIYTPQFSPEIRAYIDEKVPNVMEYVIRIKEKYWPDWEETTNTMNMATVWKKA
- soluble on expression in E. coli: not soluble

Sequence: MSLVEQLVKELSKGLNTRDYPEGFFKEHLAFRLKINKLEPVKHPHIPDINSLLGVEKQKEVLLRNTAQFVKGLPANDVLLWGARGTGKSSLVKALLGVFGKEGLRIVQVTKHEIPELADLYEVLRDKEEKFILFFDDLTFEPHEDAFRLLKSIMEGDVEERPQNVLFTQLQTGDTSLRIWKKRINFRRKHSTKSFL
- soluble on expression in E. coli: not soluble

Sequence: MFCVRCGSSDSELYEGLCRDCFLEDYSILRIPDRIEVRVCSHCRAKFISGQWLDEGLPDEEIVYRALEDSISWDEPVENPEIELEIMQERGTIYRCLVEVDAEVLGKRLSQEYEVEVRITNTVCPTCSKQSSGYYEAVIQLRADGRELAETEIETADRVVQRTLLKLSRRDKLAYLPQRVEVKEGVDYYIGSHKSARKVVDAIREKLGGITMESPRLMGQDKSTGKGLYRTWISLRLANFRVGDFLSHHNRILAVIDLRKKGVSVRDLETREVKNILWGEYEDMDVVGRADDVKTTTVTSRSPGMIQILHPETFEPVDLEADSYTSTLDIGEQVPVIEIDKRLYIIEDEAEELEHHHHHH
- soluble on expression in E. coli: soluble

Sequence: MSLNTVYHSYQSLPNEGWGKSDTLSFQCPVTDSIPGTLRLFAEVRNRSEYPYRNLYLFIHENLLDSTVWRTDTIAVNLADSTGRWTGNGWGSIYQTAVFVKSVRPLHPGNYTVKIVHGMQDEKLTGLNDVGIRIEKQGEGHHHHHH
- soluble on expression in E. coli: soluble

Sequence: MGSDKIHHHHHHMQQPLAYRMRPKTLKDVVGQQQLVGPGKIIARMVKAKRLSSMILYGPPGTGKTSIASAIAGSTKYAFRMLNAATDSKKQLQIVAEEAKMSGTVILLLDEIHRLDKTKQDFLLPHLESGRIILIGATTENPYISINPAIRSRTQIFQVFPLTDDDIQHAVERALADEKNGLGSYHVDLAPAAMHHLCTATNGDLRSALNGLELAVLSSSPADDGTIAISQQTIEECLQKKALSADKDGDAHYDVISAFQKSIRGSDVNAALHYLARLVEAGDLKSIMRRLMVIAYEDIGLANPAACAHTVAAVQAADQLGFPEARIPLADAVIELALSPKSNSGISAIDAALTTVRDGHFGDIPADIKDAHYQGAAKLGHGVGYDFPHDHPGDWVAQQYLPDAIKSAKYYEPKTNGRYETALAQQYEKLLKANERNR
- soluble on expression in E. coli: not soluble

Sequence: MTIKTPTVKVPGLGTDPLEQRIKEKEKKWKYKIAVLSGKGGVGKSTVAVNLTAALAKMGYFVGILDADIHGPNVAKMLGVDKEEVYAEKFDDGHFEMIPPTTDFMGQVTPIKVMSMGMMVPEDQPVIWRGPLVTKAIKQLLGDVKWGSLDFMIIDFPPGTGDEILTVVQSIKLDAAIIVTTPQEVALLDTGKAVNMMKKMEVPYVAVVENMSYLICPHCGNKIDIFGEGGGEKLAQKEGVDFLGKIPIDLKAREASDLGIPIVLYEDTPAAKAFMELAEKLVNKLKEIKGDGGKELEHHHHHH
- soluble on expression in E. coli: soluble

Sequence: MVSARLIFVPLHARPSGISSATTGYVPWRSFIYRNGGGRPVQSSRPWLNMQQTLRITEIFYSLQGETRTAGLPTVFVRLTGCPLRCHYCDTAYAFSGGDVVSLDAIFERVAAYKPRYICVTGGEPLAQPNCISLLERLCDAGYEVSLETSGALDVSRVDPRVSKVLDLKTPGSGEVGRNRYENIPLLTDNDQVKFVVCSREDYDWAVSKLIEYRLDQRAGEVLFSPSHHQVSARELADWIVADNLPVRLQLQLHKILWNDEPGH
- soluble on expression in E. coli: soluble

Sequence: MGHHHHHHSHESVVPARMAEMARCIRERDFPSFAQLTMKDSNQFHATCLDTFPPISYLNAISWRIIHLVHRFNAHHGDTKVAYTFDAGPNAVIFTLDDTVAEFVAAVWHGFPPGSNGD
- soluble on expression in E. coli: not soluble
